This passage reports OAT activity (ornithine aminotransferase assay) with equimolar wild type thioredoxin results from publication PMC2660430.

The test deals with PfOAT (recombinant ornithine aminotransferase) (P. falciparum strain 3D7) (UniProt Q6LFH8).
Chain of PfOAT (recombinant ornithine aminotransferase) (P. falciparum strain 3D7) (Q6LFH8 whole entry): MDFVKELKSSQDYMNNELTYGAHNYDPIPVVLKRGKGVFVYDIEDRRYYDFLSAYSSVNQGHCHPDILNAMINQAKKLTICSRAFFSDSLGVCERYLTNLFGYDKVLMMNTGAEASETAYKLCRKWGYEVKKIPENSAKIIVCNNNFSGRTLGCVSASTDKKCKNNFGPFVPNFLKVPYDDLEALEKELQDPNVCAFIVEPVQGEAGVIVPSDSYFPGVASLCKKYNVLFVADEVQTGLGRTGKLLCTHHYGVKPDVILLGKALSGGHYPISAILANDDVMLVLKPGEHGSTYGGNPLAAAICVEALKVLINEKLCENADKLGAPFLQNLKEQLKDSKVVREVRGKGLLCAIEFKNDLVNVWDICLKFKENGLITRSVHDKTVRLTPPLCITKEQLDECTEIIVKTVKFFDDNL

As to “PfTrx1 (wild type thioredoxin) (from UniProt Q7KQL8 1-104) (natural protein)”, the OAT activity (ornithine aminotransferase assay) with equimolar wild type thioredoxin came out at 75%.
